Holding throughout (experiment): SPR
In general terms: Surface plasmon resonance follows binding to a sensor surface in real time, without labels.

The target of test [1] is S1-NTD (ACROBiosystems S1D-C52H6) (SARS-CoV-2 (Wuhan-Hu-1 strain)).
Test [2] addresses S1 (Novus Biologicals NBP2-90985) (SARS-CoV-2, UniProt P0DTC2 14-685).
The target of test [3] is S1-RBD (ACROBiosystems SPD-C82E9) (SARS-CoV-2 (Wuhan-Hu-1 strain), UniProt P0DTC2 319-541).
Test [4] addresses S2 (ACROBiosystems S2N-C52E8) (SARS-CoV-2 (Wuhan-Hu-1 strain), UniProt P0DTC2 14-1273).

Experimental findings from paper PMC10275983 (2023) are described below.

No end group written: not given here.

For the molecule ACDHYHCPWLALGGSCA (not fully specified (bridges); also: bicyclic peptide, scaffold not given here) [E6 Bicycle (exemplar of epitope group 6)], binding in test [1] was put at a Kd of 3.9 µM.

In the case of ACEYVGPMCYRLYCA (not fully specified (bridges); also: Bicycle) [E1 Bicycle (exemplar of epitope group 1)], the dissociation constant Kd (as a rule, the free concentration of one partner at which half of the binding sites on the other are occupied at equilibrium, for simple one-to-one binding) in test [2] was determined as 5.1 µM; in test [3] it was 3.6 µM.

Take ACIPLDWTCMIACA (not fully specified (bridges); also: bicyclic peptide, scaffold not named) [E4 Bicycle (exemplar of epitope group 4)]: the Kd is 2.9 µM in test [2] and 0.44 µM in test [1].

In test [4], ACFPEPWLGLCTPCA (not fully specified (bridges); also: Bicycle) [E11 Bicycle (exemplar of epitope group 11)] gave a Kd of 0.53 µM.

As for ACEDNDWVYCSTCA (not fully specified (bridges); also: Bicycle) [E3 Bicycle (exemplar of epitope group 3)], the Kd in test [2] is 2.5 µM; in test [3] it was 2.3 µM.

Consider ACMNPFFYDCETVCA (not fully specified (bridges); also: bicyclic peptide, scaffold not named) [E9 Bicycle (exemplar of epitope group 9)], for which the Kd in test [2] was 3.8 µM; in test [3], 4.1 µM.

ACANPDNPVCRFYCA (not fully specified (bridges); also: bicyclic peptide, scaffold not named) [E5 Bicycle (canonical exemplar of epitope group 5)] returned a Kd in test [2] of 0.024 µM.

Consider ACPYVAGRGTCLLCA (not fully specified (bridges); also: Bicycle) [E2 Bicycle (canonical exemplar of epitope group 2)], for which the figures for the Kd in test [2] and in test [3] were 0.83 µM and 0.65 µM, respectively.

Regarding ACINPYCEHHIYLEHCA (not fully specified (bridges); also: bicyclic peptide, scaffold not given here) [E7 Bicycle (exemplar of epitope group 7)], binding in test [1] was characterised by a dissociation constant (Kd) of 4 µM.

Molecule ACSSKFCDAWWNFNRCA (not fully specified (bridges); also: Bicycle) [E12 Bicycle (exemplar of epitope group 12)] gave a Kd in test [4] of 0.81 µM.
